The results in this text go back to paper PMC3785238 (Cell, 2013).

For experiment [1], the system named is mGluR5. The experiment in a line: mGluR5 phosphorylation in cultured striatal neurons. In kind it is cell-based. The settings on record: primary striatal cultures.
Experiment [2] has as its system mGluR5-SIC. Type of experiment: cell-based, mouse.
The test system of experiment [3] is Pin1-mGluR5 binding. The experiment is described as follows: Co-immunoprecipitation of Pin1 and mGluR5 in HEK293T cells. Type of experiment: cell-based. The settings on record: no other Homer.

Where only a bound is given, the exact number is not on record here.

B1: BDNF: TrkB receptor ligand (protein, UniProt P21237 19-249, looked up)
Neurotrophic factor BDNF …: APMKEVNVHGQGNLAYPGVRTHGTLESVNGPRAGSRGLTTTSLADTFEHVIEELLDEDQKVRPNEENHKDADLYTSRVMLSSQVPLEPPLLFLLEEYKNYLDAANMSMRVRRHSDPARRGELSVCDSISEWVTAADKKTAVDMSGGTVTVLEKVPVSKGQLKQYFYETKCNPMGYTKEGCRGIDKRHWNSQCRTTQSYVRALTMDSKKRIGWRFIRIDTSCVCTLTIKRGR
With B1, the “mGluR5 phosphorylation in striatal cultures” value in experiment [1] is recorded as “increases mGluR5 phosphorylation”. In addition, in experiment [2] (BDNF 10 ng/ml, 10 min, WT neurons, n = 14, 40-min monitoring), the “mGluR5-SIC amplitude or duration, WT neurons” value was “did not alter the amplitude or duration”. For the same molecule, the “mGluR5-SIC potentiation, WT neurons pretreated with KCl” value in experiment [2] (BDNF 10 ng/ml, 10 min, after KCl pretreatment, n = 6, p < 0.05) is listed as ~ 1.5 fold. Besides, in experiment [2] (BDNF 10 ng/ml, 10 min, Grm5AA/AA n = 8, or Homer1a-expressing n = 8), the “mGluR5-SIC potentiation, Grm5AA/AA neurons” value is “not potentiated”. Also, in experiment [2] (BDNF 10 ng/ml, 10 min, Homer1aW24A n = 6, GFP n = 5), the “mGluR5-SIC potentiation, Homer1aW24A mutant or GFP expressing WT neurons” value is reported as “absent”. Moreover, the “mGluR5-SIC potentiation, Homer1c expressing Homer1−/− neurons” value in experiment [2] (BDNF 10 ng/ml, 10 min, Homer1c viral transgene, n = 8) was “blocked BDNF potentiation”. The “mGluR5-SIC potentiation, Homer1-deficient neurons” value in experiment [2] (BDNF 10 ng/ml, 10 min, Homer1−/−Homer2−/−Homer3−/− (n = 14) or Homer1−/− (n = 11) neurons, charge transfer versus baseline, p < 0.001) is listed as above 2 fold. Also, the “mGluR5-SIC potentiation, Pin1−/− neurons” value in experiment [2] (BDNF 10 ng/ml, 10 min, Pin1−/− (n = 6) or Homer1a-expressing Pin1−/− (n = 4)) was “not potentiated”. Besides, the “mGluR5-SIC potentiation, Homer1a expressing WT neurons” value in experiment [2] (BDNF 10 ng/ml, 10 min, n = 6, p < 0.001) is “potentiated”. Moreover, the “mGluR5-SIC potentiation, Grm5R/R neurons” value in experiment [2] (BDNF 10 ng/ml, 10 min, n = 7, p < 0.001, no KCl pretreatment or Homer1a expression needed) is listed as “potentiated”. Also, in experiment [2] (BDNF after KCl pretreatment, n = 3), the “mGluR5-SIC potentiation, Homer1a−/− neurons pretreated with KCl” value is listed as “not in Homer1a^−/− pre-treated with KCl”.

B2: Homer1c: constitutively expressed cross-linking Homer protein (protein)
chain: MGEQPIFSTRAHVFQIDPNTKKNWVPTSKHAVTVSYFYDSTRNVYRIISLDGSKAIINSTITPNMTFTKTSQKFGQWADSRANTVYGLGFSSEHHLSKFAEKFQEFKEAARLAKEKSQEKMELTSTPSQESAGGDLQSPLTPESINGTDDERTPDVTQNSEPRAEPAQNALPFSHSAGDRTQGLSHASSAISKHWEAELATLKGNNAKLTAALLESTANVKQWKQQLAAYQEEAERLHKRVTELECVSSQANAVHSHKTELSQTVQELEETLKVKEEEIERLKQEIDNARELQEQRDSLTQKLQEVEIRNKDLEGQLSELEQRLEKSQSEQDAFRSNLKTLLEILDGKIFELTELRDNLAKLLECS
modifications: left off: tag not named ('Tagged transgenes'), end not stated, state not stated
B2: the “effect of co-expression on Pin1-mGluR5 binding” value in experiment [3] is recorded as “reduced Pin1-mGluR5 binding”.
